Experiment: soluble on expression in E. coli; label from the status in PepcDB or PDB records
For “MSEEISLSAEFIDRVKASVKPHWGKLGWVTYKRTYARWLPEKGRSENWDETVKRVVEGNINLDPRLQDSPSLELKQSLTEEAERLYKLIYGLGATPSGRNLWISGTDYQRRTGDSLNNCWFVAIRPQKYGDSKIVPSYLGKQEKAVSMPFSFLFDELMKGGGVGFSVARSNISQIPRVDFAIDLQLVVDETSESYDASVKVGAVGKNELVQDADSIYYRLPDTREGWVLANALLIDLHFAQTNPDRKQKLILDLSDIRPYGAEIHGFGGTASGPMPLISMLLDVNEVLNNKAGGRLTAVDAADICNLIGKAVVAGNVRRSAELALGSNDDQDFISMKQDQEKLMHHRWASNNSVAVDSAFSGYQPIAAGIRENGEPGIVNLDLSKNYGRIVDGYQAGIDGDVEGTNPCGEISLANGEPCNLFEVFPLIAEEQGWDLQEVFALAARYAKRVTFSPYDWEISREIIQKNRRIGISMSGIQDWLLTRLGNRVVTGFKDDFDPETHEAIKVPVYDKRAIKMVDQLYKAVVKADQDYSKTLGCNESIKHTTVKPSGTVAKLAGASEGMHFHYGAYLIQRIRFQDSDPLLPALKACGYRTEADIYTENTTCVEFPIKAVGADNPNFASAGTVSIAEQFATQAFLQTYWSDNAVSCTITFQDSEGDQVESLLRQYRFITKSTSLLPYFGGSLQQAPKEPIDKETYEKRSQEITGNVEEVFSQLNSDVKDLELVDQTDCEGGACPIK”, the “soluble on expression in E. coli” value was “soluble”.
In the case of “MSLEGFIEDASVSLGLRNLYFNRDFRQPGAAQSKQEEWAQGFLLQAKSGYTQGTLGLGVELIGQLGLKLDSSPDRAGSGLLPRHADGRAADDYARLGVAPKLKLSNTELKLGELLPELPILLRNDGRLLPQTFQGGMLTSREIAGLTLHGGQMRSLSQRNSSDHQDLSVDGRGGAFSDRFDYLGAEYRFNAERSQVGLWQARLQDIYRQDYYSLSHKQSFGGWRLGASVGLFDTRDEGAAKLGELENRALTGFFSATRGGHSLGAGYQRMYGDDGMLYIAGTSTPLVNDIQVRNFTSAGERSWQLRYDYDFVALGIPGLTAMARYASGAHARTKAMDDGRAWERDVDVAYVIQSGPLKNLGLRWRNAMLRSNHAADVDENRLILSYSLPLLEGHHHHHH”, the “soluble on expression in E. coli” value is reported as “soluble”.
With “KYPFLREAGSSFKDRDVTKMSDLIATWDGQDIKGPALIGVPLSKSSISHSGASFAPGTIRQALKHSSAYSAELGEHVVSELLYDLGDIDIHVTDIVKSHHHIFQTMHALLSDHPDWVPLILGGDNSISYSTIKAIAQTKGTTAVIQFDAHHDVRNTEDGGPTNGTPFRRLLDEEIIEGQHLIQLGIREFSNSQAYEAYAKKHNVNIHTMDMIREKGLIPTIKEILPVVQDKTDFIFISVDMDVLDQSHAPGCPAIGPGGLYTDELLEAVKYIAQQPNVAGIEIVEVDPTLDFRDMTSRAAAHVLLHALK” the “soluble on expression in E. coli” value was “not soluble”.
With “PAAQSCAARVGAPLVNDTVSISLSDHLTDMPTIESRLHAAAKEGFTITIYNPWSRKRRDNYEKCCEILLEHRDPETPVGVVHAAGREDEQVEIVELGELPELGETDLVDMTTTLLVGNEDTY” the “soluble on expression in E. coli” value was “not soluble”.
With “MKEMTGLHSLVSIENFIKQHKFSFIYISRPGCTVCHAVLPQLRIVLDQFPNIKLGHINADDVAEVAGRFSVFTVPVLLLFIDGTEFLREARFVHFEQLEQKLKRVYRLYEGE” the “soluble on expression in E. coli” value was “not soluble”.
With “MGSDKIHHHHHHMYLVRNMEHVEPNIDGFKYYCSRFKNHFSFDERLTPWSCPHCKIGRLIAKEENFFCQETLILHSERKPSLQYSGFFICNCCDNKTFSTGTGKNNYYCGGDDETGDFTEMYVNEYTPQFFSPSIMLFNPPASTPQSVRDSLKRAFSICWCDIPASCNVLRVTVEILLKERWPEVPIVINGQNLNKKLNELKKIEASQPKLLEILDYFLAIKWLGNNGSHDAELEERDLAVAFKIMDKALILLYSRDDNSVSEWVRMINAAEGRPIKS” the “soluble on expression in E. coli” value was “not soluble”.
In the case of “MLSEVEFVEFQKENFSLLIDARSPREFLHSHLIGALNFYALNDEEYQEIGTIYKKNQALAKAMGASYICQNTTKHILEITQNFRIGEKVGIYCSRGGLRSKSIAVILSELGFRVVRLKGGFKAYRTFVTHYFENEINFDFFALCGNTGCGKTELLEQLPQAINLEKMANHLGSSFGDILGKQPTQKAFEAELFHNIQNLENFAFIESESRKIGDIILPLKFYEKMQKAFKIYCFCSLENRVRRIQKIYQEKMTPLKFQQCVQKISPYISLNLRQDLLQSYERKEWQKLIVMLLEYYDKTYKKPDKIDLELNTDDILKAKEELLDHFKVQLLF”, the “soluble on expression in E. coli” value is reported as “not soluble”.
For “MANHKPEIVITYCTQCQWLLRAAWLAQELLSTFADDLGRVALEPGTGGIFRITCNGVQIWERKADGGFPEAKVLKQRVRDQVDPQRDLGHNDRLEHHHHHH”, the “soluble on expression in E. coli” value was “soluble”.
For “MGSDKIHHHHHHMTDCADAQGLIAKITGVCFNHQLNIIKNSEFVDNAQGRFFMRTELEGHFHCEQLLQDLRQVLPAQNHMTLVSAGKKRIVILVTKEAHCLGDLLMKAYYGGLNVEIAAVVGNHDVLRELVEKFDIPFHLVSHEGLDRIQHEQALLAAVSQYSPDYLVLAKYMRVLTPDFVAEYPNRILNIHHSFLPAFIGAAPYRQAWERGVKIIGATAHFVNNCLDEGPIIKQDVIPVDHSYSALEMAKAGRDVEKSVLSKALQLVLNEQVVVYGNKTIVF”, the “soluble on expression in E. coli” value was “not soluble”.
With “MSAHDRKEPAQRCPAALAAERLQIGLEHCGISADVHQGYGVSLVSVWTNLVVWTDGLAYRWWTGKISAKTGRRLYRVYAVDNPITVAHCVAQRYEELRKASHHSRGVVERTS” the “soluble on expression in E. coli” value was “not soluble”.
In the case of “MSCDRKDEEKKETEEKKDDESKKKDEKKEEKSKRKEDEKKEKQNIAGAVYNQMRNTILMEEGSVISGRFEVKGIIGGGGFAQIYKAWDKVRKEDCAIKVEHESQDIRRMKLEITVLLALRGSMGIPEILAQGKWQHEDNKSHYIVMQLVGRNLSDVRRALPHKRITERTLYRAMIQVLKALSLVHGAGFLHRDLKPSNCCIGAIDCTRIYLIDYGLTRQYLDKGGIVRKPRAGVGLRGTVRYMSLDAHARQDLGPKNDLVAFLYTTIECGDGYLPWSHEKTHENIIKLKQAHIGDKLCTKQPVMTKAAEYIESLNYHSIPDYEKLLALMEECNPPDLKESEPYDWQYRHLPNGTPGGTKENVTERMAI”, the “soluble on expression in E. coli” value is reported as “soluble”.
For “MSLQVLDRVELYLVKTPLPAPHAPSWIPGTIRTHVSMCIVRFITDDGVEGWSGFPAAGRERAGLGDLLAGLFLGQEAGDIDKLSERIQIMAAGGNFNWWLEPAFWDIKAKSAGLPLYKLLGGTDDRIRLYASSGELRDPGARREEAEARLAEGFDTMKIRVHDFDEAVDIDHISDIARHMQGRMRISVDCNQAFRLTQNGDAPLWSLDRAKRFVDAAADVGLAWVEEPLFGEWHEEIARLTTYSRVPVAGGELHVMGYRELARMMKMGCYNIFQPDAMWAGGITQCLKVAALCWQEGIRFTPHCWSNGFGFIANAHVFAASGFAGEELFEYPLSPPGWTPEGRDQIFSEPFLHENGWFAMPQTPGLGFEINQETLEKHGQCFFRASRNSTHWMPEALPAEGHHHHHH”, the “soluble on expression in E. coli” value was “soluble”.
With “DIELTQTPVSLSASVGETVTITCRASENIYSYLAWYQQKQGKSPQFLVYNAKTLGEGVPSRFSGSGSGTQFSLKINSLLPEDFGSYYCQHHYGTPPLTFGGGTKLEIKREQKLISEEDLM” the “soluble on expression in E. coli” value was “soluble”.
In the case of “MPRLALRQYNFYYRVNGEKAEELLKEYGEDGDFLLRYSESNPQNFSISVRVAEDKILHIKVTKYESDMLSIFEDERTTPNQFGSITELAEFYMEFPEKLREKNGLFLELKKPVYVPYHLEACAEEQRRTQLYRWWHGNLPASSANKLLQTEKNGTYLLRASQHIPGALVISAKTEGQVVHLTIYQDPSTGRFNIDGDRTKFQSAWLLIDSYSKNPIVEKGEASRVLYLEEPLFNTFIEADLFVDRFEIIRRPINPRESMEKTGISEEFDRLSQEALPAEQYLSKREGRRPVNAEKNRYKNIVPFDHTRVILTDRPNTPGSDYINASYVRFENSQRTKNVTFACEKSFIATQGCLETTISDFWSMVWQENSRVIVMPTMENERKEKCARYWPAEVNKPEVHGDISLTCTIERKVQRAVSDEVKAELEQEKTNRIAKGLVPEAELNGDGISYILRTLVMKKGKDTREIRQLQYLTWPDHGCPLHPYAVLNFLEDVDREYDYFNAQPIAASLPQGPIVVHCSAGIGRTGTVLVLDALLNQVKKVGLLCPMDVYKMVKYVRTYRSGLVQTEQQYQFLYKALAFYLKNNNPYPVKSFIDGDTDAFDFPRRLRPTPNASRPSSARQVTSSRPSSSASSRTSHSRPRTGPQAEPIFERSTSSTSSSSTLLKSTKK”, the “soluble on expression in E. coli” value is reported as “not soluble”.
For “SAEKQAGLVGEPDPEGSSPGTSESWNYDSNCVFCRVAAGQEPKTELFHCENEDLVCFKDIKPAALYHYLVVPKKHIGSCKDLNKDHIEMVESMVAAGKTMLERNNFTDFTDVRMGFHVPPFCSISHLHLHVIAPVKEFGFLSKLVYRQDSYWFVTVDYLLEKLRK”, the “soluble on expression in E. coli” value was “soluble”.
For “GPGSMIYVSERPMARTFVVFDKDGKPAERPDEYFPLVQMDKEEFVNRRRGHVADENLFAVDGDLILSHLIMGTQIMYDAEKNAVHSCDTGESEADGSIPISVRVLSDEFVVRHESQPDCLAWGSEAPSVYAG”, the “soluble on expression in E. coli” value was “not soluble”.
In the case of “MGSDKIHHHHHHAEKLSDGKVKLGVLTDMTGYYADLAGPGSVVAARMAVEDFGGKVLGKPVELVSADHQLKADVASNIARKWIDEGQVDAIVDLVSSSTAGAVMPVAAEKKRITLLSGPGTTAFTGEKCTRYNVHYTYNNWALANGTGREVVKQGGDSWFFLTADYIFGKSLEEDTTKVVKAAGGKVLGAARYPSPGTTDFSSYLLQAQGSGAKIVGLANAGADTVNSIRQAEEFGVTPKQSLAGLLVFITDVHSLGLEAAKGMYLTTAFYWDLNDETRKWSRRFFQKHGKMPTMVQAGVYSSVMHYLKAVQAAGTDDADAVMAKMRETPVNDFFAKNARIGPDGLLRHDMYLARVKAPKDSKQPWDYYQIVKTIPAAEAFPSVEAQACPLAKR”, the “soluble on expression in E. coli” value is reported as “not soluble”.
In the case of “MGSDKIHHHHHHMIKRNAAKPVRVAPPMMEEQEVSTSTLQELLEKEETVSNLIFSKGREEGISKSYKSFKNCTFRNQTFSECKFRSSQLADIRFENCDLSNISFAESSLYRVEFIACKLLGTNLSETTMNHVLLHDCNASYINLAMSKMNQVRFSHCHFRNGSFNDCRFSSVAFDSCDLVEADFSHAPLRGIDLRTSRIGGITLNISDLKGAVITSLQAMDLLPLLGVIIED”, the “soluble on expression in E. coli” value is reported as “not soluble”.
With “MASKKISLTKPKYQQIAVDVAEKIAEGKLHVGDKIHARSTLANQYQVSPETARKAIIVLVDLEIVKAKHGSGFYVASKEKAQDFVTQYQDVQTIAEIKEELLDSVAKQKEELTHFSSILDTLVEQTKRFDSFNPMNPYSLVLTEEAAYLEATISEMNFWQNTSATIIAIKHKEELLVSPGPYAKISLNDTLYFVGHDESTLQRVQNFFYP” the “soluble on expression in E. coli” value was “not soluble”.
For “MGSDKIHHHHHHMQLIPLAERMRPVLLQDVYGQQHLIGEGMVFRRFVEEGKIPSMILWGPPGVGKTTLAQLLAKTVGLPFYTLSAISSGVKEVREVIANAQTDGKAVLFIDEIHRFSKSQQDALLGAVEKGTIQLIGATTENPSFEVIPALLSRCQVYVLQPLSEEELVELMRSALKKDAYLKTRSVEIKEHDSLLRLSGGDARKLLNLLELVIDASGKDPIVITDAYVQKIAQKKVASYDKNGEMHYDIISAFIKSVRGSDPNAAVYWLARMIEGGEDVEFIARRLLILASEDVGNANPTALVMATTAFDAVRFIGWPESRIILSQVTTYLASSPKSNASYMAINEAQQLVRSHGDLPVPIHLRNAPTKLMKDLDYGKEYKYAHSYEANFVEQEYMPDKLAGKKIFDPGNNAREQELRTFLQKRWKEKYKY”, the “soluble on expression in E. coli” value was “not soluble”.

— the DeepSol protein solubility set
